In patent US20230077716A1 (published 2023):
“And” between values parts separate entries of the source, which are not always exact repeats. Equal values may be shown once.

Target: recombinant B/Phuket/3073/2013 NA ectodomain (tetramer) (UniProt P16199 79-465)
Assay: BLI

B1: 2E01 Fab (Fab, V domains shown)
VH: EVQLVQSGAEVKKPGSSVKVSCKASGYTFINHALSWVRQAPGQGLEWVGGIIPIFGLAKYGQKFQDRVTITADESTKTAYMDLRSLRSDDTAVYYCARDTVAVYEDFDWSSPYFFYMDVWGKGTTVTVSS
VL: EIVLTQSPATLSLFPGERATLSCRASQSAGSKSLAWYQHKVGQPPRLLINGASSRATGIPDRFSGSGSGPDFNLTISRLEPEDFAVYYCQRYGTSLVTFGGGTKVEIK
  Kd: 0.441 µM and 0.15 µM
